Experimental data reported in US20240287165A1 (GENERAL HOSPITAL, published 2024).

Experiments:
[1] = molecular target: T1, full-length wild type human ApoE3 recombinant protein (His-tagged) (human, UniProt P02649 19-317); test: ELISA, parental hybridoma clone
T1 construct: Recombinant protein from Innovagen; also called ApoE3 WT full-length protein; APOE3 WT; not shown: histidine tag

[2] = molecular target: T2, full-length ApoE3ch (ApoE3 Christchurch R136S) mutant recombinant protein (His-tagged) (human, UniProt P02649 19-317); test: ELISA, parental hybridoma clone
T2 construct: also called ApoE3ch full length protein; APOE3ch Mutant; not shown: histidine tag

[3] = molecular target: T3, wild type ApoE peptide KLH-CTEELRVRLASHLRK-CONH2 (human, not fully specified; C-terminal amide (CONH2); printed with KLH on the added N-terminal cysteine); test: ELISA, parental hybridoma clone
T3 construct: also called WT peptide; ApoE3 WT peptide
T3 peptide: CTEELRVRLASHLRK

[4] = molecular target: T4, ApoEch peptide KLH-CTEELRVSLASHLRK-CONH2 (human, not fully specified; C-terminal amide (CONH2); printed with KLH on the added N-terminal cysteine); test: ELISA, parental hybridoma clone
T4 construct: also called Mut peptide; mutant ApoE peptide
T4 peptide: CTEELRVSLASHLRK

[5] = molecular target: T1, full-length wild type human ApoE3 …; test: BLI (BLItz), mAb 1H4 on protein A biosensor, run with 142.9 nM ApoE3, global fit
Description: (§1) The binding affinity between ApoE3 and the monoclonal antibody 1H4 (mAb 1H4) was determined using the advanced kinetic module of the BLItz system (Blitz Pro, FB-609928, ver. 1.3.1.3). Briefly, a protein A biosensor was loaded with mAb 1H4 and both association and dissociation constants were determined at increasing concentrations of the full length ApoE3 protein (Innovagen) from 0 to 571.4 nM. The following running settings were used: 30 s initial baseline in the experimental media, 120 s loading of the ligand (mAb 1H4) on the biosensors, 30 s new baseline before association (120 s) and dissociation (120 s) steps. A total of 6 runs of 420 s at 2200 rpm and room temperature were conducted to determine the binding parameters of ApoE3. Global fitting and step corrections of the dissociation experiments were performed using the BLItz software (ver. 1.1.0.7). […] KD, Ka and Kd were measured (table 10) and calculated using the BLItz system. Top panel is representative of the association steps, the bottom panel is representative of the dissociation steps of the binding kinetic. The X and Y axes depicts time in second and binding in nM, respectively.

[6] = molecular target: T1, full-length wild type human ApoE3 …; test: BLI (BLItz), mAb 1H4 on protein A biosensor, run with 285.7 nM ApoE3, global fit
Description: as §1

[7] = molecular target: T1, full-length wild type human ApoE3 …; test: BLI (BLItz), mAb 1H4 on protein A biosensor, run with 35.71 nM ApoE3, global fit
Description: as §1

[8] = molecular target: T1, full-length wild type human ApoE3 …; test: BLI (BLItz), mAb 1H4 on protein A biosensor, run with 571.4 nM ApoE3, global fit
Description: as §1

[9] = molecular target: T1, full-length wild type human ApoE3 …; test: BLI (BLItz), mAb 1H4 on protein A biosensor, run with 71.43 nM ApoE3, global fit
Description: as §1

[10] = molecular target: T4, ApoEch peptide KLH-CTEELRVSLASHLRK-CONH2; test: ELISA of 1H4-2 subclone serum on ApoE3ch peptide, O.D. 450 nm against dilution factor
mouse recombinant ApoE = molecular target: T5, mouse recombinant ApoE (mouse, UniProt P08226 19-311); test: ELISA, His-tagged target on anti-His plate, serial antibody dilutions, anti-mouse HRP, O.D. 450 nm
T5 construct: also called mouse recombinant ApoE3; msApoE
T5 sequence (looked up): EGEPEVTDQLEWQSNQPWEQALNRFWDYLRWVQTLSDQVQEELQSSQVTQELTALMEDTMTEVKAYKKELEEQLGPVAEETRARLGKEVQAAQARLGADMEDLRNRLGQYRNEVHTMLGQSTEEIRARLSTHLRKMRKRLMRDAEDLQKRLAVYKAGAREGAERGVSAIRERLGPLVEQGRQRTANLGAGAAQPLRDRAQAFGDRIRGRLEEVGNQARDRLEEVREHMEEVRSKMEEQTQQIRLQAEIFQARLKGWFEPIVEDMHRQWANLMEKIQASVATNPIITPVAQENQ
Description: To test selectivity of the antibodies for huApoE3WT, huApoE3ch or msApoE, anti-his ELISA coated plates were incubated with 0.0025 μg/μL of the target protein for 2 h at R.T. under gentle shaking. Wells were washed 5 times with 1X wash buffer (R&D) and subsequently incubated with serial dilutions of Innovagen antibody of interest over night at 4° C. on a shaker (100 μL/well). The following day, wells were washed 5 times with sample buffer and incubated for 45 minutes using Rabbit-anti-mouse HRP-conjugated buffer (1:10,000; 100 μL/well; Abcam). After 5 more washes, plates were incubated with chromogen A+B 1:1 to initiate the colorimetric reaction (100 μL/well). The reaction was stopped with 2 N […] (R&D stop solution., 50 μL/well) and absorbance detected at 450 nm spectroscopically.

[11] = molecular target: T2, full-length ApoE3ch (ApoE3 Christchurch …); test: ELISA of 1H4-2 subclone serum on ApoE3ch full length protein, O.D. 450 nm against dilution factor
[12] = molecular target: T1, full-length wild type human ApoE3 …; test: BLI (BLItz), mAb 1H4 on protein A biosensor, run with 142.9 nM ApoE3, global fit; columns shifted: value stands under 'Ka Error' but is the kd (0.04142/2900000 = 14.28 nM)
Description: as §1

[13] = molecular target: T1, full-length wild type human ApoE3 …; test: BLI (BLItz), mAb 1H4 on protein A biosensor, run with 285.7 nM ApoE3, global fit; columns shifted: value stands under 'Ka Error' but is the kd (0.04142/2900000 = 14.28 nM)
Description: as §1

[14] = molecular target: T1, full-length wild type human ApoE3 …; test: BLI (BLItz), mAb 1H4 on protein A biosensor, run with 35.71 nM ApoE3, global fit; columns shifted: value stands under 'Ka Error' but is the kd (0.04142/2900000 = 14.28 nM)
Description: as §1

[15] = molecular target: T1, full-length wild type human ApoE3 …; test: BLI (BLItz), mAb 1H4 on protein A biosensor, run with 571.4 nM ApoE3, global fit; columns shifted: value stands under 'Ka Error' but is the kd (0.04142/2900000 = 14.28 nM)
Description: as §1

[16] = molecular target: T1, full-length wild type human ApoE3 …; test: BLI (BLItz), mAb 1H4 on protein A biosensor, run with 71.43 nM ApoE3, global fit; columns shifted: value stands under 'Ka Error' but is the kd (0.04142/2900000 = 14.28 nM)
Description: as §1

T1 sequence (P02649 19-317): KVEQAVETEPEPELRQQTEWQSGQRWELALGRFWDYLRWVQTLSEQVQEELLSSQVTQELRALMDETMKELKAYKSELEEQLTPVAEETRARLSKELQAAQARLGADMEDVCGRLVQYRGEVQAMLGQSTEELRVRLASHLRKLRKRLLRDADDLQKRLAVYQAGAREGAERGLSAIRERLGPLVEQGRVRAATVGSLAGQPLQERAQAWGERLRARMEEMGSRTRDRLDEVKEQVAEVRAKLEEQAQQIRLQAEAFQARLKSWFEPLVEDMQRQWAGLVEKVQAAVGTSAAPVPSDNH
T2 sequence (P02649 19-317 R154S): as the sequence (P02649 19-317) above, with R136S counted along it

B1: antibody 1H4-2 (antibody, V domains shown)
VH: EVKLVESGGGVVQPGGSLKLSCAASGFTFSSYTMSWVRQTPEKRLEWVAKIRNGGGITYYLDTLKGRFTISRDNAKNTLYLQMSSLKSEDTAIYFCARHYYGSEDYFDYWGQGTTLTVSS
VL: DNVLTQSPASLAVSLGQRATISCKASQSVDYDGDSYMNWYQQKPGQPPKVFIYAASNLESGIPARFSGSGSGTDFTLNIHPVEEEDAATYYCQQSNEDPWTFGGGTKLEIK
notes: also called mAb 1H4; monoclonal 1H4 antibody
absorbance (ELISA) [1]: 2.11 absorbance | absorbance (ELISA) [2]: 0.056 absorbance | absorbance (ELISA) [3]: 2.58 absorbance | absorbance (ELISA) [4]: 0.07 absorbance | Kd [5]: 14.3 nM | kon [5]: 2.9e+06 M⁻¹ s⁻¹ | Kd [6]: 14.3 nM | kon [6]: 2.9e+06 M⁻¹ s⁻¹ | Kd [7]: 14.3 nM | kon [7]: 2.9e+06 M⁻¹ s⁻¹ | Kd [8]: 14.3 nM | kon [8]: 2.9e+06 M⁻¹ s⁻¹ | Kd [9]: 14.3 nM | kon [9]: 2.9e+06 M⁻¹ s⁻¹ | binding result [10]: no binding (tested: 1:10 dilution) | binding result (mouse recombinant ApoE): no binding (tested: 1:500 dilution) | binding result [11]: no binding (tested: 1:10 dilution) | koff [12]: 0.0414 s⁻¹ | koff [13]: 0.0414 s⁻¹ | koff [14]: 0.0414 s⁻¹ | koff [15]: 0.0414 s⁻¹ | koff [16]: 0.0414 s⁻¹
